According to article PMC6629726, “Domain swapping of complementarity-determining region in nanobodies produced by Pichia pastoris” (AMB Express, 2019):

What was measured:
[1] = target: T1, Recombinant GFP (green fluorescent protein) (UniProt P42212 = GFP); test: SPR; BIACORE T-200; GFP amine-coupled on CM5 (1189.8 RU); nanobodies 0.4 μM flowed over, 25 °C, HBS-EP pH 7.4, contact 180 s, 30 μL/min; binding level relative to GFP N = 1; N = 3; settings: both partners purified
T1 construct: green fluorescent protein, recombinant, bought from ProSpec; No catalogue number is printed; source: bought: ProSpec

[2] = target: T2, Recombinant CD4 (cluster of differentiation 4) (Homo sapiens (species ), UniProt P01730); test: SPR; BIACORE T-200; CD4 amine-coupled on CM5 (9695.5 RU); nanobodies 0.4 μM flowed over, 25 °C, HBS-EP pH 7.4, contact 180 s, 30 μL/min; binding level relative to CD4 N = 1; N = 3; settings: both partners purified
T2 construct: CD4, recombinant, bought from R&D Systems; No catalogue number is printed; a bought soluble CD4 is probably the extracellular domain, possibly tagged (surmise); source: bought: R&D Systems

Row | binding result [1] | relative binding response (CD4N to CD4 = 1) [2] | Binder
1 | no binding (tested: 0.4 μM) | 0.1 | chimeric nanobody with CDR3 of GFP-nanobody replaced with that of CD4-nanobody (VHH, everything before CDR3 (scaffold, CDR1, CDR2), as in the VHH of m1; CDR3, as in the VHH of m2; scaffold after CDR3, as in the VHH of m1; also called cCD4 CDR3; not shown: long peptide tag containing two FLAG-tags, C-terminal, kept) VHH: QVQLVESGGALVQPGGSLRLSCAASGFPVNRYSMRWYRQAPGKEREWVAGMSSAGDRSSYEDSVKGRFTISRDDARNTVYLQMNSLKPEDTAVYYCAADTYNSNPARWDGYDFRGQGTQVTVSS
2 | – | 0.091 | chimeric nanobody with CDR2 of GFP-nanobody replaced with that of CD4-nanobody (VHH, everything before CDR2 (scaffold, CDR1), as in the VHH of m1; CDR2, as in the VHH of m2; everything after CDR2 (scaffold, CDR3), as in the VHH of m1; also called cCD4 CDR2; not shown: long peptide tag containing two FLAG-tags, C-terminal, kept) VHH: QVQLVESGGALVQPGGSLRLSCAASGFPVNRYSMRWYRQAPGKEREWVAAVRWSSTGIYYTQYADSVKGRFTISRDDARNTVYLQMNSLKPEDTAVYYCNVNVGFEYWGQGTQVTVSS
3 | – | 0.096 | chimeric nanobody in which all CDRs of GFP-nanobody had been replaced with those of CD4-nanobody (VHH, scaffold before CDR1, as in the VHH of m1; CDR1, as in the VHH of m2; scaffold between CDR1 and CDR2, as in the VHH of m1; CDR2, as in the VHH of m2; scaffold between CDR2 and CDR3, as in the VHH of m1; CDR3, as in the VHH of m2; scaffold after CDR3, as in the VHH of m1; not shown: long peptide tag containing two FLAG-tags, C-terminal, kept) VHH: QVQLVESGGALVQPGGSLRLSCAASGRTFNVMRWYRQAPGKEREWVAAVRWSSTGIYYTQYADSVKGRFTISRDDARNTVYLQMNSLKPEDTAVYYCAADTYNSNPARWDGYDFRGQGTQVTVSS
